Changes are numbered by the printed parent chain. Names and notes keep the numbering of the source.
T1: EsCas13d, nuclease-dead (Eubacterium siraeum, UniProt B0MS50, R295A;H300A;R849A;H854A)
T1 sequence: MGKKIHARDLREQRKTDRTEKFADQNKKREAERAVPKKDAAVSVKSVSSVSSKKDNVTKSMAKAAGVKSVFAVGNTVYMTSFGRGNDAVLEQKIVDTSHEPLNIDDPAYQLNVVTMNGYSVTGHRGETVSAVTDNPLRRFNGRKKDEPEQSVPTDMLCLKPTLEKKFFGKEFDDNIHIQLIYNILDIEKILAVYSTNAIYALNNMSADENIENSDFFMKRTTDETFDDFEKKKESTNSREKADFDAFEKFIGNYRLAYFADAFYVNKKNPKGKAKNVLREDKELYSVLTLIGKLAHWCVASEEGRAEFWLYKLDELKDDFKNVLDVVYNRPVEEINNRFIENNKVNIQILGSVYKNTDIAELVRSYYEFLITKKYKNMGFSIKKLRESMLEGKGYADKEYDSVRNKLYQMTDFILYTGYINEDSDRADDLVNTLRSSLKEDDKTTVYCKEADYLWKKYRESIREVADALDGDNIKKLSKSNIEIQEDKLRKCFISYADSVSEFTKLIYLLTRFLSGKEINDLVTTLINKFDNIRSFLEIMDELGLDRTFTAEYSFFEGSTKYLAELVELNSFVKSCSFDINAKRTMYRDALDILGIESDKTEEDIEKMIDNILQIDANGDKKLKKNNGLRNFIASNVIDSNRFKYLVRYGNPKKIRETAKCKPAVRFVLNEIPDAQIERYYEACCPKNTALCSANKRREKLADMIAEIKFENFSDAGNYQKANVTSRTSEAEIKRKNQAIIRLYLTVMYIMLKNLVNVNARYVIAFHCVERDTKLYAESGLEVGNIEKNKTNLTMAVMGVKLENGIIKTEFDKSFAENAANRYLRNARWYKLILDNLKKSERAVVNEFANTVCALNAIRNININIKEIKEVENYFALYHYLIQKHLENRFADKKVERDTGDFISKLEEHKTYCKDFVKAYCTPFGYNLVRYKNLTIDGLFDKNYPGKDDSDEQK

B1: non-target control (mixed)
RNA 1: CACCCGUGCAAAAAUGCAGGGGUCUAAAACUGAGCGGAUAACCUCUCUAUGG
RNA 2: GGGAAUGGAUCCACAUCUACGAAUUCGUUAGCUAGAAGGGGAAGUUGGUUAUGGAGAUCGGAAGAGCACACGU
B2: target 1 insG 3' of 9,insA 3' of 5 (mixed)
RNA 1: B1 RNA 1
RNA 2: GGGAAUGGAUCCACAUCUACGAAUUCGUACCAUAGAGAGGUUAGUCCGACUCACCGAGAUCGGAAGAGCACACGU
B3: target 1 A1U,A9U (mixed)
RNA 1: B1 RNA 1
RNA 2: GGGAAUGGAUCCACAUCUACGAAUUCGUACCAUAGAGAGGUUUUCCGCUCUCCGAGAUCGGAAGAGCACACGU
B4: target 1 A9U,G12A (mixed)
RNA 1: B1 RNA 1
RNA 2: B3 RNA 2 with G40A, U51A
B5: target 1 C2U,C4A (mixed)
RNA 1: B1 RNA 1
RNA 2: B3 RNA 2 with U43A, C48A, C50U, U51A
B6: target 1 G5U,G12C (mixed)
RNA 1: B1 RNA 1
RNA 2: B3 RNA 2 with G40C, U43A, G47U, U51A
B7: target 1 insA 3' of 13,insC 3' of 12 (mixed)
RNA 1: B1 RNA 1
RNA 2: B2 RNA 2 with G40A, U41G, U42C, A43U, G44U, U45A, C46U, G48C, A49G
B8: target 1 insG 3' of 22,insA 3' of 8 (mixed)
RNA 1: B1 RNA 1
RNA 2: GGGAAUGGAUCCACAUCUACGAAUUCGUACGCAUAGAGAGGUUAUACCGCUCACCGAGAUCGGAAGAGCACACGU
B9: target 1 insC 3' of 17,insG 3' of 14 (mixed)
RNA 1: B1 RNA 1
RNA 2: GGGAAUGGAUCCACAUCUACGAAUUCGUACCAUAGCAGAGGGUUAUCCGCUCACCGAGAUCGGAAGAGCACACGU
B10: target 1 C4U,U8C (mixed)
RNA 1: B1 RNA 1
RNA 2: B3 RNA 2 with U43A, U44C, C48U, U51A
B11: target 1 U8A,C22U (mixed)
RNA 1: B1 RNA 1
RNA 2: B3 RNA 2 with C30U, U43A, U44A, U51A
B12: target 1 U3A,U10G (mixed)
RNA 1: B1 RNA 1
RNA 2: B3 RNA 2 with U42G, U43A, U49A, U51A
B13: target 1 insA 3' of 15,insC 3' of 8 (mixed)
RNA 1: B1 RNA 1
RNA 2: B2 RNA 2 with G39A, U41G, A43U, G44A, G48C, A49G
B14: target 1 insC 3' of 9,insA 3' of 7 (mixed)
RNA 1: B1 RNA 1
RNA 2: B2 RNA 2 with G44C, C47A, G48C, A49G
B15: target 1 A1G,A9U (mixed)
RNA 1: B1 RNA 1
RNA 2: B3 RNA 2 with U51G
B16: target 1 G15C,C22A (mixed)
RNA 1: B1 RNA 1
RNA 2: B3 RNA 2 with C30A, G37C, U43A, U51A
B17: target 1 insC 3' of 12,insA 3' of 11 (mixed)
RNA 1: B1 RNA 1
RNA 2: B2 RNA 2 with U41C, G44U, U45A, C46U, G48C, A49G
B18: target 1 insU 3' of 6,insG 3' of 3 (mixed)
RNA 1: B1 RNA 1
RNA 2: B2 RNA 2 with G44U, U45C, C47U, A49C, C50U, U51G
B19: target 1 C6G,U11C (mixed)
RNA 1: B1 RNA 1
RNA 2: B3 RNA 2 with U41C, U43A, C46G, U51A
B20: target 1 A18G (mixed)
RNA 1: B1 RNA 1
RNA 2: B3 RNA 2 with A34G, U43A, U51A
B21: target 1 U11A (mixed)
RNA 1: B1 RNA 1
RNA 2: B3 RNA 2 with U41A, U43A, U51A
B22: target 1 insG 3' of 11,insG 3' of 7 (mixed)
RNA 1: B1 RNA 1
RNA 2: B2 RNA 2 with U42G, A43U, G44A, C47G, G48C, A49G
B23: target 1 insG 3' of 11,insA 3' of 11 (mixed)
RNA 1: B1 RNA 1
RNA 2: B2 RNA 2 with U42G, G44U, U45A, C46U, G48C, A49G
B24: target 1 insC 3' of 12,insG 3' of 2 (mixed)
RNA 1: B1 RNA 1
RNA 2: B2 RNA 2 with U41C, A43U, G44A, A49C, C50U, U51C, C52G
B25: target 1 A9C,U11C (mixed)
RNA 1: B1 RNA 1
RNA 2: B3 RNA 2 with U41C, U43C, U51A
B26: target 1 insG 3' of 16,insA 3' of 10 (mixed)
RNA 1: B1 RNA 1
RNA 2: B9 RNA 2 with C36A, A37G, G42U, U44A
B27: target 1 insC 3' of 22,insC 3' of 10 (mixed)
RNA 1: B1 RNA 1
RNA 2: B8 RNA 2 with G31C, A44C, U45A, A46U
B28: target 1 A9U (mixed)
RNA 1: B1 RNA 1
RNA 2: B3 RNA 2 with U51A
B29: target 2 MT 5'PFS CUC 3'PFS ACU (mixed)
RNA 1: CACCCGUGCAAAAUUGCAGGGGUCUAAAACCUUCUCCAAAUUGUUUCAUCCU
RNA 2: GGGAAUGGAUCCACAUCUACGAAUUCCUCAGGAUGAAACAAUUUGGAGAAGACUAGAUCGGAAGAGCACACGU
B30: target 2 MT 5'PFS GUA 3'PFS AGU (mixed)
RNA 1: B29 RNA 1
RNA 2: B29 RNA 2 with C27G, C29A, C53G
B31: target 2 MT 5'PFS CGC 3'PFS UAA (mixed)
RNA 1: B29 RNA 1
RNA 2: B29 RNA 2 with U28G, A52U, C53A, U54A
B32: target 2 MT 5'PFS GCG 3'PFS UGU (mixed)
RNA 1: B29 RNA 1
RNA 2: B29 RNA 2 with C27G, U28C, C29G, A52U, C53G
B33: target 2 MT 5'PFS CGC 3'PFS UAC (mixed)
RNA 1: B29 RNA 1
RNA 2: B29 RNA 2 with U28G, A52U, C53A, U54C
B34: target 2 MT 5'PFS GGC 3'PFS UGC (mixed)
RNA 1: B29 RNA 1
RNA 2: B29 RNA 2 with C27G, U28G, A52U, C53G, U54C
B35: target 2 MT 5'PFS ACC 3'PFS CCG (mixed)
RNA 1: B29 RNA 1
RNA 2: B29 RNA 2 with C27A, U28C, A52C, U54G

What follows are binders tested against T1, EsCas13d, nuclease-dead (assay: crRNA (strand 1, pre-loaded); Mg2+; 40 mM Tris-HCl pH 7.5, 150 mM NaCl, 6 mM MgCl2, 1 mM DTT, 0.1% Tween-20, 0.2 mg/ml BSA; 25 C; 10 min per concentration, then washed). Conditions: tags: His6-TwinStrep-SUMO cleaved; N-terminal SNAP kept (SNAP-Surface 488); label: 3' end held by stalled T7 RNA polymerase.

Binder	Kd [nM]
B1	> 100
B2	10.3 ± 1
B3	7.8 ± 0.5
B4	7.7 ± 0.4
B5	6.7 ± 0.4
B6	41 ± 4
B7	6.3 ± 0.9
B8	35.9 ± 2.6
B9	38 ± 4
B10	30 ± 4
B11	35 ± 5
B12	61 ± 16
B13	15.2 ± 1.8
B14	10.4 ± 0.4
B15	8.1 ± 0.6
B16	63 ± 12
B17	15 ± 1.2
B18	7.9 ± 0.4

Binder	Kd [nM]
B19	9.8 ± 0.8
B20	94 ± 28
B21	30.7 ± 1.9
B22	17.2 ± 0.8
B23	15.2 ± 0.8
B24	9.8 ± 1.2
B25	20 ± 1.7
B26	19.9 ± 1.5
B27	41 ± 10
B28	8.9 ± 0.7
B29	2.14 ± 0.28
B30	12.4 ± 1.4
B31	3.9 ± 0.6
B32	17.4 ± 2.1
B33	6.3 ± 0.8
B34	13.2 ± 1.3
B35	12 ± 5
